Assay results: publication doi:10.1101/2021.07.12.452133

What was measured:
[1] = biological target: MBP-tagged delVirB4_CTn4 (NH2-terminally truncated VirB4-like ATPase of the CTn4 locus, C. difficile 630) (Clostridioides difficile strain 630); test: SEC
[2] = biological target: MBP-tagged delVirB4_CTn4 (NH2-terminally truncated VirB4-like ATPase of the CTn4 locus, C. difficile 630) (Clostridioides difficile strain 630); test: negative-stain transmission electron microscopy
[3] = biological target: MBP-tagged delVirD4_CTn4 (NH2-terminally truncated VirD4-like ATPase of the CTn4 locus, C. difficile 630) (Clostridioides difficile strain 630); test: SEC
[4] = biological target: MBP-tagged delVirD4_CTn4 (NH2-terminally truncated VirD4-like ATPase of the CTn4 locus, C. difficile 630) (Clostridioides difficile strain 630); test: negative-stain transmission electron microscopy

| Substance | oligomerization rate [1] [%] | stoichiometry N [1] [monomers] | stoichiometry N [2] | oligomerization rate [3] [%] | stoichiometry N [3] [monomers] | stoichiometry N [4] |
| --- | --- | --- | --- | --- | --- | --- |
| MBP-tagged delVirB4_CTn4 (NH2-terminally truncated VirB4-like ATPase of the CTn4 locus, C. difficile 630) (domain or fragment) | 100 | > 6 | 6 to 7 |  |  |  |
| MBP-tagged delVirD4_CTn4 (NH2-terminally truncated VirD4-like ATPase of the CTn4 locus, C. difficile 630) (domain or fragment) |  |  |  | 100 | > 6 | 6 to 7 |
